# Data published in patent publication US20260176307A1 (VECTORY THERAPEUTICS B V, published 2026).
# Residue numbers refer to the chain shown, from its start.
# B1: anti-TDP43 clone C, scFv format (scFv)
# scFv: QVQLVQSGAEVKKPGASVKVSCKASGFTFTEYSMHWVRQAPGQGLEWMGGINPNNGGTSYNQKFQGRVTMTRDTSTSTVYMELSSLRSEDTAVYYCARESWGQGTLVTVSSGGGGSGGGGSGGGGSDIVMTQSPLSLPVTPGEPASISCKSSQSLLHSDGKTYLNWYLQKPGQSPQLLIYLGSNRASGVPDRFSGSGSGTDFTLKISRVEAEDVGVYYCFQGTHFPHTFGGGTKVEIK
# B2: anti-TDP43 clone G, scFv format (scFv)
# scFv: B1 scFv with R98S, G182V, N184K, R185L, A186K, F220M
# notes: also called VecTab G (as AAV5.2-encoded scFv)
# B3: anti-TDP43 clone I, scFv format (scFv)
# scFv: B1 scFv with S59I, F220M
# notes: also called VecTab I (as AAV5.2-encoded scFv)
# B4: anti-TDP43 clone B, scFv format (scFv)
# scFv: B1 scFv with Y32L, G182A, N184R
# notes: also called VecTab B (as AAV5.2-encoded scFv)
# B5: anti-TDP43 clone S, scFv format (scFv)
# scFv: QVQLVQSGAEVKKPGASVKVSCKASGYTFTKYWMHWVRQAPGQGLEWMGEINPSNGRTNYPQKFQGRVTMTRDTSTSTVYMELSSLRSEDTAVYYCWRYMDYWGQGTLVTVSSGGGGSGGGGSGGGGSDIVMTQSPLSLPVTPGEPASISCRSSQSLLHSNGYNYLDWYLQKPGQSPQLLIYKVSNRFTGVPDRFSGSGSGTDFTLKISRVEAEDVGVYYCMQHTHWPPAFGGGTKVEIK
# notes: also called VecTab S (as AAV5.2-encoded scFv)
# B6: anti-TDP43 clone X, scFv format (scFv)
# scFv: B5 scFv with K31S, Y32H, W33Y, M34L, E50I, P61N, K183E, T189S, M222L, A230T
# B7: anti-TDP43 clone O, full-length human IgG1 format (antibody, V domains shown)
# VH: QVQLVQSGAEVKKPGASVKVSCKASGYTFTKYWMHWVRQAPGQGLEWMGEINPKNGRTNYNQKFQGRVTMTRDTSTSTVYMELSSLRSEDTAVYYCWRYMDYWGQGTLVTVSS
# VL: DIVMTQSPLSLPVTPGEPASISCRSSQSLLHSNGYNYLDWYLQKPGQSPQLLIYKVSNRFSGVPDRFSGSGSGTDFTLKISRVEAEDVGVYYCLQHTHWPPTFGGGTKVEIK
# notes: Tested as full-length human IgG1
# B8: anti-TDP43 clone X, full-length human IgG1 format (antibody, V domains shown)
# VH: B7 VH with K31S, Y32H, W33Y, M34L, E50I, K54S
# VL: B7 VL with K55E
# notes: as for B7
# B9: anti-TDP43 clone C, full-length human IgG1 format (antibody, V domains shown)
# VH: QVQLVQSGAEVKKPGASVKVSCKASGFTFTEYSMHWVRQAPGQGLEWMGGINPNNGGTSYNQKFQGRVTMTRDTSTSTVYMELSSLRSEDTAVYYCARESWGQGTLVTVSS
# VL: DIVMTQSPLSLPVTPGEPASISCKSSQSLLHSDGKTYLNWYLQKPGQSPQLLIYLGSNRASGVPDRFSGSGSGTDFTLKISRVEAEDVGVYYCFQGTHFPHTFGGGTKVEIK
# notes: as for B7
# B10: anti-TDP43 clone I, full-length human IgG1 format (antibody, V domains shown)
# VH: B9 VH with S59I
# VL: B9 VL with F94M
# notes: as for B7
# B11: anti-TDP43 clone G, full-length human IgG1 format (antibody, V domains shown)
# VH: B9 VH with R98S
# VL: B9 VL with G56V, N58K, R59L, A60K, F94M
# notes: as for B7
# Target: T1, non-phosphorylated C-terminal TDP-43 peptide NAGSGSGFNGGFGSSMDSKSSGWGM (human, N-terminally biotinylated)
# T1 construct: Synthetic biotinylated peptide captured on streptavidin plates; also called non-phosphorylated TDP-43
# T1 peptide: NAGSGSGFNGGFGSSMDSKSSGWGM
# Test: ELISA, biotinylated peptide on streptavidin plate, scFv format, rabbit anti-G4S and anti-rabbit HRP
# Protocol: (§1) The ability of clones to bind phosphorylated TDP-43 and/or non-phosphorylated TDP-43 was assessed using N-terminally biotinylated TDP-43 peptides having the following sequences: […] (SEQ ID NO: 218; non-phosphorylated); […] {PSER} SGWGM (SEQ ID NO: 219; phosphorylated S409); […] {PSER} GWGM (SEQ ID NO: 220; phosphorylated S410); and […] {PSER} {PSER} GWGM (SEQ ID NO: 221; phosphorylated S409/S410). Peptides were dissolved in 100% DMSO, aliquoted, and stored in −80° C. before use. Wells were incubated with 100 μL (5 μg/mL) of the peptides on streptavidin plates overnight at 4° C. The plates were then washed 3× in PBST wash buffer. Antibody clones B, C, G, I, O, S, U, and X, and non-binding controls (VRC07 for full-length IgG, and anti-methamphetamine clone 6H4 as control for the scFv experiments) were made in full-length human IgG₁ and scFv formats (IpA), and dilutions were prepared in blocking buffer (2% BSA). 100 μL/well of the dilutions were added to coated plates and the plates were incubated at RT for 1 hour. The plates were subsequently washed 3× with 250 μL/well wash buffer. 100 μL/well of primary antibody CEN63-C13 Rb-a-G4S (IpA) diluted in blocking buffer (2 μg/ml) was added and the plates were incubated for 1 hour at RT followed by 3× washing in PBST. For detection, 100 μL/well secondary antibodies (goat anti human IgG₁ HRP (Jackson ImmunoResearch) or goat anti-rabbit HRP for scFv (Promega)) diluted in blocking buffer (1:5000) was added to the wells and the plates were incubated for 1 hour at RT. The plates were subsequently washed 3× and 100 μL/well of TMB ready solution was added to the wells, followed by 3-4 minutes incubation in the dark. The reaction was stopped with 1M H₂SO₄ added to the wells (100 μL/well), and absorption measured on a GloMax plate reader (Promega) at […].
row,Binder,binding result
1,B1,binds
2,B2,binds
3,B3,binds
4,B4,binds

# Target: T1, non-phosphorylated C-terminal TDP-43 …
# Test: ELISA, biotinylated peptide on streptavidin plate, scFv format, rabbit anti-G4S and anti-rabbit HRP; profile referred to: less efficient at binding non-phosphorylated TDP-43
# Protocol: as §1, with “100 μL/well of primary antibody CEN63-C13 Rb-a-G4S (IpA) diluted in blocking buffer (2 μg/ml) was added and the plates were incubated for 1 hour at RT followed by 3× washing in PBST. For detection, 100 μL/well secondary antibodies (goat anti human IgG₁ HRP (Jackson ImmunoResearch) or goat anti-rabbit HRP for scFv (Promega)) diluted in blocking buffer (1:5000) was added to the wells and the plates were incubated for 1 hour at RT.” left out
row,Binder,binding result
1,B5,binds
2,B6,binds

# Target: T1, non-phosphorylated C-terminal TDP-43 …
# Test: ELISA, biotinylated peptide on streptavidin plate, IgG1 format, anti-human IgG1 HRP
# Protocol: as §1
row,Binder,binding result
1,B7,binds
2,B8,binds
3,B9,binds
4,B10,binds
5,B11,binds
